Laboratory results taken from US6340783B1, “Rodent models of human amyloidoses” (University of Washington, priority 1992, dated 2002).
Where two headings read alike, the source gives them in different places.

Legend:
mutated β/A4 (1-28) = target: T1, mutated β/A4 (1-28) (Homo sapiens, UniProt P05067, H684G/H685G/K687G); assay: Affinity column with β/A4 (1-28) mutated in the putative heparin binding domain; conditions: histidine, histidine and lysine changed to glycine; versus normal β/A4 (1-28) column
T1 construct: residues 1-28 of BAP or residues 597-624 of BAPP
Description: As described above, residues 12-17 of the β/A4 (-valine-histidine-histidine-glutamine-lysine-leucine-) conform to a consensus sequence for a potential heparin/heparan sulfate binding domain. This has been recently confirmed by our studies, whereby comparisons were made using column affinity chromatography. One affinity column contained β/A4 (1-28), whereas the other affinity column contained β/A4 (1-28) with three amino acid substitutions of the putative heparin binding domain (i.e. the basic amino acids histidine, histidine and lysine where changed to glycine, and therefore were now uncharged instead of basic amino acids). ^125I-HSPG bound with high affinity to normal β/A4 (1-28) affinity column, whereas a 50-60% decrease in HSPG binding to the mutated β/A4 (1-28) was observed.

BAP (1-28) = target: T2, BAP (1-28) (Homo sapiens, UniProt P05067); assay: Solid phase binding assay, Scatchard analysis of 125I-BAP (1-28) binding to high Mr HSPG
T2 construct: residues 1-28 of BAP or residues 597-624 of BAPP; purchased Bachem Inc., Torrance, Calif; host or cells: synthetic peptide
Procedure: Nitrocellulose coated wells were incubated overnight at room temperature with 100 μl of TBS containing 1.5 μg (with 0.28 μg binding to the well) of high Mr HSPG. Wells were blocked overnight at room temperature with 200 μl of 5% non-fat dried milk. After blocking, wells were rinsed 3 times with 200 μl of TBS. Various quantities of ^125I-BAP (1-28) (specific activity=6,683 cpm/pm) diluted in 100 μl of TBS/0.05% Tween 20 was added in triplicate to wells and incubated for 2.5 hours at room temperature on an orbital shaker. At the end of the incubation period, free ^125I-BAP was removed from each well and transferred to scintillation vials for counting. In addition, each well was washed 6 times with 200 μl of TBS/0.05% Tween 20, and the wash was added to each of the same scintillation vials described above, to determine the total “free” 125I-BAP fraction for each well. Bound ^125-BAP was extracted from wells by incubation with 100 μl of 1N NaOH at room temperature for 1 hour, and quantitated by liquid scintillation counting. Recovery of ^125I-BAP as free and bound radioactivity exceeded 90%. […] Bars indicate standard error of the mean.
^125I-HSPG (specific activity=1,104 cpm/ug) isolated from EC culture media was used to determine the amount of HSPG which bound to microtiter wells. Polyvinyl microtiter wells were coated with 100 μl of nitrocellulose solution (Schleicher and Schuell) (10 cm^2 of BA85 nitrocellulose in 10 ml of methanol) and allowed to dry at room temperature for 4 hours. Wells were coated overnight at room temperature with unlabeled HSPG to give 0.12 μg or 0.28 μg of bound-HSPG per well, and blocked overnight at room temperature with 200 μl of 5% non-fat dried milk (Carnation Co., Los Angeles, Calif.). Various quantities of 125I-BAP (residues 1-28) (specific activity=6,683 cpm/pm) diluted in 100 μl of TBS/0.05% Tween 20 were added in triplicate to wells and incubated for 2.5 hours at room temperature on an orbital shaker. At the end of the incubation. period, free ^125I-BAP was then removed with 6 washes of TBS/0.05% Tween 20. Bound ^125I-BAP was extracted from wells by incubation with 100 μl of 1N NaOH at room temperature for 1 hour, and “bound” versus “free” radioactivity was quantitated by liquid scintillation counting. Recovery of ^125I-BAP as free and bound radioactivity exceeded 90%. A set of controls using 5% BSA-coated wells was also included in all experiments.
To quantitate the interaction between the high Mr HSPG and BAP (1-28), 0.12 μg or 0.28 μg of the HSPG (isolated from the culture media of ECs; see FIG. 9B, lane 1) were immobilized on nitrocellulose coated wells and incubated with increasing concentrations of ^125I-BAP.

[1] = target: T3, Beta-Amyloid Protein (1-28) (Homo sapiens, UniProt P05067); assay: Competitive inhibition of 125I-labeled HSPG binding to BAP (1-28) affinity column; conditions: absence of unlabeled competing ligand, n=5
T3 construct: residues 1-28 of BAP or residues 597-624 of BAPP; purchased Bachem Inc., Torrance, Calif; host or cells: synthetic peptide
Procedure: ^125I-labeled HSPGs in the presence of increasing concentrations of unlabeled GAGs, or large low density HSPG (from EHS sarcoma) were applied to an Affi-gel 10 column containing BAP (residues 1-28). After nonbound PGs were eluted from the column using TBS+0.1% TX-100, bound PGs were eluted with a step gradient using 15 ml of 1M MgCl2 in TBS+0.1% TX-100, followed by 15 ml of 4M MgCl2 in TBS+0.1% TX-100, and then 10 ml of 8M urea buffer containing 3M NaCl. […] Bars indicate standard error of the mean.
In order to test the specificity of HSPG binding to BAP (1-28), competitive inhibition experiments were also performed. 125-I labeled HSPGs (100,000-200,000 dpm) were mixed with (a) HSPG from EHS sarcoma (Mr approximately 700,000) (Kato et al., 1988) (gift of Dr. Koji Kimata, Aichi, Japan), (b) heparin from porcine intestinal mucosa (Mr˜11,000; Sigma, St. Louis, Mo.), (c) chondroitin-6-sulfate from shark cartilage (Mr˜59,000; Sigma, St. Louis, Mo.), or (d) […] dextran sulfate (Mr˜110,000; Pharmacia Fine Chemicals, Uppsala, Sweden). The samples were incubated on a rotator for 2 hours at room temperature and then applied to the BAP (1-28) column. Columns were run and eluted with step gradients (1 to 4 M MgCl2) as described above.
Purified iodinated HSPGs were combined with various concentrations of unlabeled competing ligands and applied to a BAP (1-28) affinity column (FIG. 10).

## high Mr HSPG: ˜600-800 kDa heparan sulfate proteoglycan isolated from culture media of bovine aortic endothelial cells
Mutated β/A4 (1-28)
  decrease in HSPG binding to mutated β/A4 (1-28): 50-60%
BAP (1-28); 125I-BAP (1-28), Scatchard analysis, HSPG on nitrocellulose coated wells, read-out: Kd of the high affinity binding site
  Kd: 0.083 nM
BAP (1-28); 125I-BAP (1-28), Scatchard analysis, HSPG on nitrocellulose coated wells, read-out: Kd of the low affinity binding site
  Kd: 42 nM
BAP (1-28); assuming molecular weights of 700,000 and 2,800
  moles of BAP bound by 1 mole of HSPG: ~1.8 mol
BAP (1-28); binding to BAP/β/A4 (1-28), read-out: Kd of the low affinity binding site (unit inferred)
  Kd: 42 nM
[1]
  applied 125I-HSPG bound to the BAP column: 21.6±4.4%
